B1: Death-inducer obliterator 1, residues 263 to 321; numbered along this chain, Q9BTC0 (parent)
chain: GYDPNALYCICRQPHNNRFMICCDRCEEWFHGDCVGISEARGRLLERNGEDYICPNCTI
B2: Homeobox protein SIX6, residues 134 to 184; numbered along this chain, O95475 (parent)
chain: CFKERTRHLLREWYLQDPYPNPSKKRELAQATGLTPTQVGNWFKNRRQRDR

Variants of: B1
Assay: abundance fitness (aPCA) (normalised: wild type 0, dead -1); higher = more abundant; growth selection in yeast, the domain comes from the species named
Conditions: Homo sapiens

Abundance fitness, by site and new letter:
N56: H -0.048 | S 0.122 | A -0.037 | C -0.014 | K -0.525 | Q -0.155 | P -0.121 | R -0.126 | L -0.22 | W -0.002 | Y 0.021 | G 0.064 | M -0.138 | E -0.007 | T -0.01
C57: E -0.483 | S -0.848 | N -0.582 | R -0.769 | Q -0.842 | P -0.828 | L -0.705 | G -1.12 | T -0.509 | A -1.04 | D -0.498 | V -0.904 | M -0.989 | Y -0.903 | W -0.992 | I -1.06 | H -0.206
D51: Y 0.177 | L -0.332 | N -0.18 | M -0.367 | Q 0.135 | K -0.216 | W -0.612 | T -0.004 | S 0.07 | P -0.289 | I -0.135 | R 0.013
I59: G -0.218 | S -0.015 | W -0.414 | V 0.279 | N 0.329 | M 0.026 | H -0.14 | A 0.001 | R -0.046 | L -0.077 | K 0.424 | D 0.618 | F -0.122
Y52: I -0.196 | C -0.275 | K -0.181 | E -0.172 | R -0.227 | Q -0.256 | N -0.334 | M -0.598 | T -0.03 | S -0.235 | W 0.09 | L -0.032 | G -0.357 | F 0.009 | H -0.493 | V -0.151
T58: K 0.123 | V -0.055 | Y -0.289 | D 0.138 | I 0.111 | S 0.047 | H 0.046 | L 0.127 | G -0.006 | F -0.264 | R 0.3 | P 0.014 | A 0.084 | M -0.115 | C 0.194
I53: R -0.024 | K 0.355 | A 0.059 | P -0.419 | N 0.328 | V -0.028 | S 0.02 | L 0.132 | G -0.136 | M 0.269 | E 0.172 | C 0.063 | H -0.093 | Y 0.149 | Q -0.03
P55: H -0.04 | M -0.112 | L -0.011 | Q 0.109 | T 0.083 | F -0.4 | E -0.116 | D -0.66 | C -0.098 | N -0.365 | R 0.019 | Y -0.245 | A 0.078 | G -0.531 | K 0.265 | I -0.156
C54: T -0.65 | P -0.821 | Q -0.405 | S -0.723 | D -0.999 | E -0.781 | K -0.571 | V -0.674 | L -1.19 | Y -1.24 | N -0.811 | I -1 | G -1.15 | H -0.245 | M -0.991

Variants of: B2
Assay: as above
Conditions: Homo sapiens

Abundance fitness: each site, then its substitutions
L10: E -0.741 | K -0.993 | Q -0.613 | A -1.02 | F -0.684 | G -0.983 | S -0.916 | P -0.793 | T -0.888 | C -0.608 | W -0.892 | H -0.841 | M -0.676 | N -0.722 | V -1.12
F2: T 0.196 | R -0.407 | A -0.111 | V -0.255 | I 0.179 | Q -0.182 | H -0.013 | N 0.333 | W -0.369 | G -0.017 | M 0.192 | P -0.383 | E 0.102 | D 0.05 | K 0.247 | Y -0.11 | S 0.256 | C 0.025 | L -0.023
E12: R -0.529 | D -0.124 | Y -0.454 | V -0.389 | I -0.271 | Q -0.365 | S -0.362 | K -0.504 | A -0.427 | T -0.33 | G -0.393 | H -0.455 | W -0.413 | N -0.428 | L -0.458 | P -1.01 | C -0.262 | M -0.204
L9: Y -0.283 | E -0.751 | M -0.238 | S -0.793 | W -1.12 | P -0.645 | Q -0.35 | N -0.827 | K -0.258 | G -0.914 | D -0.739 | F -0.213 | R -0.314 | T -0.138 | H -0.626 | I 0.145 | A -0.387 | V -0.328
E4: C -0.55 | Q -0.277 | S -0.276 | K -0.125 | R -0.361 | L -0.271 | T -0.362 | P -0.741 | N -0.03 | I -0.335 | D 0.017 | W -0.354 | G -0.448 | H -0.587 | V -0.5 | M -0.131 | F -0.56 | Y -0.012
W13: C 0.011 | N 0.24 | V -0.181 | I -0.216 | K -0.528 | G -0.157 | L -0.259 | A -0.003 | D -0.765 | R -0.608 | P -0.994 | Q -0.021 | M -0.121 | H -0.046 | E -0.067 | F -0.251 | Y -0.319
C1: F 0.095 | G 0 | S 0.116
T6: L -0.095 | R -0.3 | W -0.182 | I 0.36 | E -0.619 | F -0.691 | G -0.24 | M -0.042 | Q -0.168 | V 0.173 | A -0.036 | K -0.368 | Y -0.45 | C -0.76 | S -0.174 | N -0.498 | H -0.356 | D -0.45
K3: C -0.06 | A -0.19 | V -0.562 | P -0.1 | E -0.083 | M -0.171 | W -0.298 | N -0.196 | F -0.095 | Q -0.402 | Y -0.672 | G -0.358 | D 0.122 | T 0.201 | I -0.17 | S 0.295 | R -0.118 | L -0.181
R7: C -0.306 | P -0.359 | M 0.073 | L 0.051 | V -0.058 | G -0.22 | N -0.138 | I 0.073 | Q 0.02 | T 0.01 | D 0.167 | K 0.126 | F -0.221 | Y -0.147 | S -0.084 | E 0.236 | A 0.033
R5: L -0.175 | N -0.075 | K -0.263 | Q -0.74 | I -0.172 | W -0.558 | E 0.068 | Y -0.221 | D 0.116 | M 0.078 | V -0.315 | T 0.159 | A -0.377 | G 0.082 | P -0.355 | S 0.191
H8: C -0.032 | S 0.135 | G -0.1
Y14: C -0.994 | A -0.987
R11: Q 0.268 | M -0.019 | H -0.487 | N 0.27 | Y 0.097 | A -0.379 | T 0.054 | S -0.077 | W -0.129 | I 0.051 | D -0.612 | P -0.958 | V -0.249 | G -0.119 | F -0.63 | K 0.066 | E 0.125 | L 0.008

Reference: the Human Domainome abundance scans (Beltran et al. 2025)
